Reference: US20100129807A1 (published 2010)
Where no end group is shown, it is not given here.

Target: T1, bacterial repressor protein LexA (UniProt P0A7C2 1-202)
T1 construct: One entry is used for LexA in all assays; also called LexA target (pEG202); LexA bait
T1 sequence: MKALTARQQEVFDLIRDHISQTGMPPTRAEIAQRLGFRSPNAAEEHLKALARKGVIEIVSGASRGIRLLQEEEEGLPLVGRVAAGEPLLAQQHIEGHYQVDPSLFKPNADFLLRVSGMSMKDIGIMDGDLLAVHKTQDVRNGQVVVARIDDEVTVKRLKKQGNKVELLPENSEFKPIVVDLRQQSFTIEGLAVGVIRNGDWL
Assay: SPR (BiacoreX), L2 peptide immobilised on a CM5 chip, LexA injected

B1: synthetic linear L2 peptide with a TAT importer sequence at the N-terminal (NH2-GRKKRRQRRRPPQ-SRSWDLPGEY) (peptide)
peptide: H-GRKKRRQRRRPPQSRSWDLPGEY
notes: Immobilised on a CM5 sensor chip for SPR
  Kd: 1700 nM
